We go through 20 sequences from a protein production outcome set (Wang et al. 2014).

A short description of the data set: label from the status in PepcDB records.
Turning to “MLHLQTFGDLRLIETNGDAIRYPIKGLLMMAHLYAGASHELSRYELAQFLWNDVESELARLNLRKLLSRIRETDGGRAEIPFDFTATTVRLNTQAVSSDLDIFRAGGSPLERLNAIAELTQRGFIGNIKPATKLIEAWIRAQRDAQALQLRQALLDALPDAQKPGAARSISGAALQILERDPNDEQVRALLHQLSGGSSLSERLPNGDGHARVQVKRSEAGGETTADIERVSQAPLILPRLVLLPPTSKHADAGLALANALIEDVTIELCALRNISIVAPHTAGQIRRDSEKAAVVARHSIAYLLDTRLSEEGLFAQLVYFPTDEIIWANRFTMTPDILPRQRRLIAQQLTMSVARELAENEEERLRFEANPEAYHAYLVGSSLMSKLTLPHIRRARKAFKQSLSHKADFSPSFTGLARTFTSEWLVTAQGNNELLHLAEQNALRAIERDPASAAGHRELGVTKLYLGDVDASVAALDLAEQLSPHFADVIYSHADTLVHASRPGDALAKIRRAISLNPIAPDAYLWCAAGASFFLEQYEEAIAYVEAMKDKAPAHRIAAASCAMIGDRKRALFHRQRAESINPVFDVEKWLAIVPFKEDWQKELYREGLLKAGF”, the protein production entry is “failed”. The entry for “MPQGKWFRFGYGIVLVLLIIYLGSLVDWIFRPIVVFVQTLFAPVIIAGILYYLFRPIVGLLSKKMNRGLSILILFLMIIGAFTAFSLIVGPELQRQFQSLYNNLPTLINQVRDTFIALQSNELFNRFQESETFQPEEMISRFVNSLNDIIGTIGANITGFIGALANFFIILVLVPFILFYLLKEGEKLPVQLLKLFNKKQQHEGRLILADMDKMLSSYIQGQIIVSFCVGILCYIAYLIIGLDYALILALVAMFTNVIPFVGPWIGTFPAVIVAFIDSPLTALIVVIVVVVIQQIESNLISPQVMGKKLAIHPITIIFILLVAGRFAGVVGMLLAVPTYAVGKVIVTHSYRLWKLRKQPVE” is “failed”.

On to “MDYTYTVMTQEEAEEIAYNWHYEGEYSFYDIEADEEDLAEFLHDESRGDHIFSVKEHGTLIGYFTVCKINDGTVDIGLGMKPNITGNGFGLQFINAILAFSKEKYGCKYITLSVATFNKRAIKVYKRAGFEAVGTFIQKTNGSCFEFLKMNYICKND”, for which the protein production entry is on record as “failed”. The entry for “MRFSREALLELEASRLAPYAQKARDTRGRAHPEPESLYRTPYQKDRDRILHTTAFRRLEYKTQVLPGWAGDYYRTRLTHTLEVAQVSRSIARALGLNEDLTEAIALSHDLGHPPFGHTGEHVLNALMQDHGGFEHNAQALRILTHLEVRYPGFRGLNLTYEVLEGIATHEAAYSPGFKPLYEGQGTLEAQVVDLSDAIAYAAHDLDDGLRAGLLHPEELKEVELLQALALEEGLDLLRLPELDRRVLVRQLLGYFITAAIEATHRRVEEAGVQSAEAVRRHPSRLAALGEEAEKALKALKAFLMERFYRHPEVLRERRKAEAVLEGLFAAYTRYPELLPREVQAKIPEEGLERAVCDYIAGMTDRFALEAYRRLSP” is “not failed”; for “MRAVLTWRDKAEHCINDIAFKPDGTQLILAAGSRLLVYDTSDGTLLQPLKGHKDTVYCVAYAKDGLWSPEQKSVSKHKSSSKIICCSWTNDGQYLALGMFNGIISIRNKNGEEKVKIERPGGSLSPIWSICWNPSREERNDILAVADWGQKVSFYQLSGKQIGKDRALNFDPCCISYFTKGEYILLGGSDKQVSLFTKDGVRLGTVGEQNSWVWTCQAKPDSNYVVVGCQDGTISFYQLIFSTVHGLYKDRYAYRDSMTDVIVQHLITEQKVRIKCKELVKKIAIYRNRLAIQLPEKILIYELYSEDLSDMHYRVKEKIIKKFECNLLVVCANHIILCQEKRLQCLSFSGVKEREWQMESLIRYIKVIGGPPGREGLLVGLKNGQILKIFVDNLFAIVLLKQATAVRCLDMSASRKKLAVVDENDTCLVYDIDTKELLFQEPNANSVAWNTQCEDMLCFSGGGYLNIKASTFPVHRQKLQGFVVGYNGSKIFCLHVFSISAVEVPQSAPMYQYLDRKLFKEAYQIACLGVTDTDWRELAMEALEGLDFETAKKAFIRVQDLRYLELISSIEERKKRGETNNDLFLADVFSYQGKFHEAAKLYKRSGHENLALEMYTDLCMFEYAKDFLGSGDPKETKMLITKQADWARNIKEPKAAVEMYISAGEHVKAIEICGDHGWVDMLIDIARKLDKAEREPLLLCATYLKKLDSPGYAAETYLKMGDLKSLVQLHVETQRWDEAFALGEKHPEFKDDIYMPYAQWLAENDRFEEAQKAFHKAGRQREAVQVLEQLTNNAVAESRFNDAAYYYWMLSMQCLDIAQADPAQKDTMLGKFYHFQRLAELYHGYHAIHRHTEDPFSVHRPETLFNISRFLLHSLPKDTPSGISKVKILFTLAKQSKALGAYRLARHAYDKLRGLYIPARFQKSIELGTLTIRAKPFHDSEELVPLCYRCSTNNPLLNNLGNVCINCRQPFIFSASSYDVLHLVEFYLEEGITDEEAISLIDLEVLRPKRDDRQLEIANNSSQILRLVETKDSIGDEDPFTAKLSFEQGGSEFVPVVVSRLVLRSMSRRDVLIKRWPPPLRWQYFRSLLPDASITMCPSCFQMFHSEDYELLVLQHGCCPYCRRCKDDPGP” it is “failed”; for “MNAIILAAGFGSRLMPLTKDQPKCMVEYKNKKIIDYEIEALKSAGINEIAVVGGYLNDVLKNYLNKYDIEHFFINSKYDKTNMVHTFFCAKDFMLKCIEEKQDLIISYADIVYFQDCVQKLINAKEELAIVVDKSWCKLWSKRFANPLEDAETLKMTNGYIIELGKKANAYDEIEAQYIGLFKFSYQFLSEVIAFYEMLDRDILYDNKNFENMYMTSFLQALIEKYNNAKAVEIDGNWCEIDFMSDLEVQIEKLEHHHHHH” it is “failed”. Under “MFVGVDHAGRDWSWKEPGSTKACRNFMITLFAEWALPATTGQASGRRAMARKFMVPALAVLAFAIAAPAFAQVPANIAKAVADPSRPAAETARDAARRPGEILAMAELKPGDTVVDYIMGGGYFTRIISGAVGPQGVVYAYQPAEFIRFAARYGESLKAVTAALANSKPLDGPITALDLPDNVDAVITVQNYHDMHLKPFPTDTAAKANAEIFKSLKPGGVFLVIDHSAIAGSGITAADTLHRIDIAAVKQEVEAAGFKLEAESGLLADPADARTINVFDPAIRGKTDQFILKFRKPK” stands “failed”. “MEQIITDFISKWGYTAIFILILLENVLPVVPSEIILTFAGLLSVKSHLSIWTLLIIATIASFIGLLILYYICRLISEEKLYRFVDRHGKWMKLKSKDLKRANDWFKKYGAWAVFLCRFVPVLRVLITIPAGINRMNVIQFTTLSLIGTTIWNFALILLGRLLSDSFDALMNGIHTYSRIMYVIIIIAVIYFVIRYLMKRRRSVK”: the protein production entry is listed as “failed”. Take “MILINKRAEKQDYQTILAIWEKSVIVTHDFLTAEDRQFYKEQIPLFLDNVELFLWFAGEEVIGFSGTSERELDMLFLDPVATGNGYGSQILGWLIENKRINLVDVNEQNENATRFYLKHGFVVSSRSDLDGFGKPYPILQLQLK”: the protein production result was “not failed”. Under “MKVDVDEKTYIITMANDITKLYEENKRNLHYSITDPLTGAYNRKYLNDRFDIFIGDYIVLIDLDNFKMINDYEGHNVGDKILCDFVSLLNKELINSTSIIRLGGDEFIVIFSSDVDKNYVYSQLEALRENFLKVFSKYKYLSFSYGVDTVKRNLKLTIVELDKKMYKNKEKLEHHHHHH” stands “failed”; under “MGFSFLLATVQKERMKRRSRTRSRSRRRAKQDPKTWVARYIPQDLLIEILTRLPPKSVMRFKCVSKFWSSLLSSRYFCNRFLIVPSQPQPSLYMCLLDRYNYSKSLILSSAPSTSPYSFVFDQDLTIRKMGGFFLRILRGFIFFTRNLKARIYNPTTRQLVILPTIKESDIIAGPPYNILYFICHDPVNDRYKLLCTVSYASDNDLQNLKSELWIFVLEAGGSWKRVANEFPHHVPSHLDLNMNGVLYFLAWTDPHTCMLVSFDVRSEEFNTMQVPRNAGDTLPRQEKGVVNRVW”, “failed”. As for “MPHSSTNITKAVLQGRGLYPISLVTGAMFTEEMYVVLESTTRAETFLTPMELQAKLMEYLTGTEVSLSPDLLALPDVESRAQYLMTTACELQLANGGYLQWYAVRLEKLEHHHHHH”, the protein production entry is on record as “not failed”. As to “MYDFKKINNLRGIERETLRVTDCGNLATSNHPDGLGHKLTNNSITVDFSENLLELITKPHDSIDKAIGELYQLSAFTLDNMHSDEIILNTSMPLSANDNDIQEADFGSSNSGRMKRVYRKGLSARYGKIMQIISGIHYNFSFDKDLISNIATNKQVSISDIYFDVLNNYFEFMWLLPYLFGASPICAKTSVKNKPDYLSVLDDKFYVGEYATSLRMSDLGYTSPAQKDLAISYDNVKAYVKDLIQATDDTFADYKRIGLYNSQGQRIQLNDGILQIENEYYSAIRPKQIAKRGERPACALYNRGVEYVEVRVLDVDPFEPVGISKDTALFVEVMLMTCLDKDAKKYHKDIIKQAKQNLTAVAIQGRNPQLKLKKLDDDSEILLKDYALELFDEIEAVAKKMPKEYLDAVEIQKRKVLDISQTPSAKIIELARQHGYKKFILDISRRVSQQFRSYELPAAIVAKLKDQAGQSVAAEKELVANDKISLDEYINRYYKSSKGCC”, the protein production entry is recorded as “not failed”.

Regarding “MLNGDVTLRAWTNIWMFLIYGLAIFLEPIHNNIRHLPILVRGGIYSTLIIISEYITGSFLCFMLGTCPWHYSSGPFTIQGITRLDYFPYWLIAGLLFEKLHDALLKISINVEQSSS”, the protein production entry is “failed”. The entry for “MVLPSGLALPPLEYTVALLAGTLVVTALLYALEPPINQRTVVALTPWMALGGALHAFHQPPIEAYRPVVTPLFGAPAVYLTTFVTLGVVWVTLTLFSVRRGHSETISRNLGYIGIGLLTVLLVIAVVMALESGLLGLIWPTIAVIVATVVTAVTVLAVALWRTPVVVRMRYAAPTVVFAHMLDGVSTAVGADVIGITERTPIPARIMEFAGTLPTAPYLGKGWLFVFVKLLVAIGVVFLLDDYLEEDPVEASLLLAVVTAVGIGPATNNIVLFLFSPV” is “failed”; for “MTTLVPLNRIDSQKIEDLLDIGFGKDRHGRTAYRLRQGVSAIPELSFAAVDGDILQGIIQCWPIRLSCLNGKKLPMILLGPVAVHPDYQGHGIGQTLVQHSLDVADSSDITGHDAVMLIGDPEYYNRFFGFSDEETGDWRLPGPVEKRRLLARLTSPRL” it is “failed”.

Regarding “QTLLQANPDPVLVADAETGKIVEANAAATGLLGRPREEIIGAHQTDLHPSGRAEAYASLFRRSLDEDGPMRALPDGTQIEVVTDEGTTVPVEVNATTVDLPDGRVVYGVFRDVSE”, the protein production entry is “failed”. The entry for “MQHSTLEPSTSLDVPSCIPRVSRYPRVKDVIARKYRLVVKTIGYIGWSLFWLLIWDVLVTIDFMLFLNSKFTLPLIPLTLLGSALVVLVSFRNSSAYSRWWEARTLWGALVNSSRSFARQTLTLIDDPDDGLNPVKATLLRRHIAYVNCLAAHLKGESCPEELMAFIPPAEFERRNRSNNFANDILGGSAALLAREYQAGRLDSIRLARLESTLVDLSNAQGGMERIANTPLPYPYVYFPRLFITLFCLIVPVGLVESLGWFTPLASTVVGFMLLAIERIGTDLQSPFRFSEHQIQMDTICETIERNLESMQREAQCAEAVDA” is “failed”; for “MALPPILRDRLRLPVIASPLFIISNPDLVIAQCKAGIVGSFPSLNARPLSQLDEWLARITEELAAWDKANPDMPSAPFAVNQIVHKTNNRLEDDIAMCVKYKVPLVITSLGAREDVNQAIHSYGGITLHDVITDRFARKAIEKGADGLIPVAAGAGGHAGTLSPFALIQEIRQWFDGPVALSGSIASGRSILAAQAMGADLAYVGSAFIATKEANAVEGYKQMIVDSKADDILYSNLFTGVHGNYLRPSVIKAGLDPENLPESDPSKMNFGSGGNQDAKAWRDIWGCGQGIGAIDNVLTAGELVAKFAAEYEQAKAELAAKTALTAGKHLAFAAE” it is “failed”. Under “MPANPRILETMSQLFVSFPHCATLGFEYVGTDGRKPTLKLQWREDLVGNPATGILHGGVITSLVDTCSAIAVTAHLPELETIATLDLRIDYLKSATPGKAIHCTAECYRLASQIAFTRAVCYHDNPADPIAHGVATFMRESSLEHHHHHH” stands “failed”.
